Results: patent US20230071765A1, “COMPOSITIONS HAVING THIOREDOXIN ACTIVITY AND RELATED METHODS” (ORPRO THERAPEUTICS, INC., priority 2020, published 2023)

How the values were obtained:
[1] = DTNB assay of reduction state (free SH groups); format: physicochemical; conditions: for % reduced (68 hrs): 25° C., red fraction removed
Protocol: Functional assays 1. Reduction state of ORP100S was quantified using DTNB which reacts with free SH groups resulting in a yellow color change at 412 nm. Fifty microliters of 2.5 mM rhTrx was added to a 96-well plate, followed by 175 microliters of sample buffer and 25 microliters of 6 mM DTNB. After reactions were initiated by the addition of DTNB, change in kinetic absorbance at 412 nm due to DTNB reduction was monitored spectrophotometrically at 30° C. ORP100S concentration was determined by A280 (Nanodrop) using the extinction coefficient of human Trx-1 (7,000). The actual concentrations of free sulfhydryl groups were calculated based on the absorbance at 412 nm and the extinction coefficient of DTNB (14,150) in order to determine the reduction state as percentage of free sulfhydryl. […] 2. Percent of free monomer ORP100S in solution was determined using SEC. Samples were analyzed on a BioBasic S-300 250×4.6 column (Thermo Scientific) run on an Agilent 1100 HPLC system. The SEC-HPLC mobile phase buffer consisted of 40 mM ammonium acetate (pH 5.5), 2 mM EDTA and 450 mM NaCl. Low pH minimized dimerization while the 450 mM NaCl concentration improved resolution. The flow rate was 0.35 mL/min and absorbance was monitored at 280 nm. The length of each run was 20 minutes. The ORP100S monomer percentage was determined by integration of the area under the peak of the monomeric fraction divided by the total area under the curve of the chromatogram. 3. Disulfide bond reduction activity of ORP100S was quantified by assaying the reduction state of a small protein (human insulin) which in its heterodimeric form contains two intermolecular and one intramolecular disulfide, all three of which are known to be suitable thioredoxin substrates. Insulin reduction has classically been used to quantify thioredoxin activity by absorbance change following addition of NADPH and TrxR (Holmgren A., 1979, Thioredoxin catalyzes the reduction of insulin disulfides by dithiothreitol and dihydrolipoamide, J Biol Chem 254:9627-32). Such an approach is not suitable for monothiol C35S thioredoxins ORP-100 and ORP100S due to 1) the lack of cycling resulting from stoichiometric covalent linkage to the disulfide bond substrate and 2) the inability of NADPH and TrxR to reduce Cys32 of the oxidized monothiol Trx active site. Consequently, a new assay was developed based on the use of reverse-phase (RP) HPLC to monitor the rate of conversion of disulfide-bonded insulin heterodimers to monomeric forms. The two chains of human insulin have a total of six Cys residues which form three disulfide bonds in its mature structure. When ORP100S in the reduced form is incubated with dimeric insulin it reacts with these disulfide bonds to disrupt them, simultaneously forming covalent linkages to the ORP100S Cys32. […] The ORP100S samples were incubated with 10 mg/mL insulin for various time points (0-90 min) and the reactions were stopped by addition of iodacetic acid (IA) and trifluoroacetic acid (TFA). Relative activity at each time point was determined from changes in the area under the insulin heterodimer peak following separation over RP-HPLC (Agilent 1100) using an Intrada WP-RP 50×3 (Imtakt) column. Buffer A was 0.1% TFA and Buffer B was 0.1% TFA in acetonitrile. The gradient was […] in 5 min followed by 30 to 60% B in 45 min, then 60 to 80% B for an additional 5 min. The flow rate was 0.2 mL/min and absorbance was measured at 280 nm. In order to evaluate the change in the intact insulin molecule a time 0 baseline was first established using 1 M IA and 0.1% TFA without the addition of ORP100S. The area under the intact insulin heterodimer peak was then determined and set as equivalent to 100%. After the reaction with ORP100S the area of the intact insulin peak (corresponding to retention time) was measured. The percent reduction in intact insulin was then calculated from the decrease in the area following reduction divided by the area at time 0 multiplied by 100.

[2] = thiol pKa (acid-dissociation constant); format: physicochemical; conditions: verified experimentally, data not shown
Excerpt: The human CF airway surface liquid is approximately 0.8 pH units more acidic than that of unaffected individuals due to the loss of bicarbonate-mediated buffering of proton secretion (Garland A L, Walton W G, Coakley R D, et al., 2013, Molecular basis for pH-dependent mucosal dehydration in cystic fibrosis airways. PNAS 110:15973-8; Shah V S, Meyerholz D K, Tang X X, et al., 2016, Airway acidification initiates host defense abnormalities in cystic fibrosis mice, Science 351:503-7). This has consequences for the clinical use of reducing agents to treat condensed, abnormal mucus. […] Cys thiol pKa values range from pH 8.5 (cysteamine) to pH 9.5 (NAC). In marked contrast to these classical thiols, the structurally-stabilized pKa of the Trx active site Cys32 is two to three logs lower (pH 6.1-6.3), allowing high activity even at acidic CF airway pH (FIG. 2).

B1: ORP100S: thioredoxin with monothiol active site, Cys35 and non-active Cys 62, 69 and 73 substituted with serine (SEQ ID NO:29) (protein)
chain: MVKQIESKTAFQEALDAAGDKLVVVDFSATWCGPSKMIKPFFHSLSEKYSNVIFLEVDVDDSQDVASESEVKSMPTFQFFKKGQKVGEFSGANKEKLEATINELV
modifications: synthetic peptide motif
[1]; 70 mg/mL in PBS
  % reduced (68 hrs): 109%
[1]; 80 mg/mL in PBS
  % reduced (68 hrs): 87%
[1]; 90 mg/mL in PBS
  % reduced (68 hrs): 91%
[1]; 100 mg/mL in PBS
  % reduced (68 hrs): 91%
[1]; 110 mg/mL in PBS
  % reduced (68 hrs): 102%
[1]; Ox:Red 0:100 mixture
  DTNB % reduced: 86%
[1]; Ox:Red 25:75 mixture
  DTNB % reduced: 73%
[1]; Ox:Red 50:50 mixture
  DTNB % reduced: 55%
[1]; Ox:Red 75:25 mixture
  DTNB % reduced: 49%
[1]; Ox:Red 100:0 mixture
  DTNB % reduced: 22%
[2]
  pKa compared to native Trx: same pKa as native Trx
